Reference: paper PMC9977175

Legend:
[1] = molecular target: SUMO-tagged WIPI2b^Δ (residues 13 to 362 without 265 to 297) (human); assay: SEC-MALS
[2] = molecular target: SUMO-tagged WIPI2b^Δ (residues 13 to 362 without 265 to 297) (human); assay: ITC

Trx-tagged ATG16L1(78 to 247), sequence (Q676U5 78-247): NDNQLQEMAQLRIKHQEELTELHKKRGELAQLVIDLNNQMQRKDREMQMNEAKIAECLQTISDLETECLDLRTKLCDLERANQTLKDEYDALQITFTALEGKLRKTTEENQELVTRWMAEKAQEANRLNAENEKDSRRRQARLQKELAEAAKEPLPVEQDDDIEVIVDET
Trx-tagged ATG16L1(207 to 247), sequence (Q676U5 207-247): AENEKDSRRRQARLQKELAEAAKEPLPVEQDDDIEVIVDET
ATG16L1(124 to 247), sequence (Q676U5 124-247): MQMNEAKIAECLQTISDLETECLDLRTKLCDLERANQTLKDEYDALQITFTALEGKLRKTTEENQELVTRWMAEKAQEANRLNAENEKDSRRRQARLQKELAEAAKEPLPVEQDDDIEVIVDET
Trx-tagged ATG16L1(78 to 206), sequence (Q676U5 78-206): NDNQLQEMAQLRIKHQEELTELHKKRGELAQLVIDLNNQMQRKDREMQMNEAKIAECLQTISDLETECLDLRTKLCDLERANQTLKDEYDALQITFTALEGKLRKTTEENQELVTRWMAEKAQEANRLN

## ATG16L1(124 to 247) (from UniProt Q676U5 124-247) (domain or fragment)
[1]
  stoichiometry N (ATG16L1 chains per WIPI2b^Δ (2:2)): 1

## Trx-tagged ATG16L1(78 to 206) (from UniProt Q676U5 78-206) (domain or fragment)
[2]
  Kd: 6.88 µM

## Trx-tagged ATG16L1(78 to 247) (from UniProt Q676U5 78-247) (domain or fragment)
[2]
  KD of the WBS1 site (two-site fit): 2.88 µM
  KD of the WBS2 site (two-site fit): 0.41 µM

## Trx-tagged ATG16L1(207 to 247) (from UniProt Q676U5 207-247) (domain or fragment)
[2]
  Kd: 3.93 µM
